The source of these data is patent publication US20190031754A1 (Scripps Research, published 2019).

Assay [1] has as its target T1, hROR2-T245 extracellular domain displayed on HEK 293F cells (human, UniProt Q01974 55-394; P09619 513-561).
T1 construct: range 55-394;range 513-561; also called complete ECD
The experiment in a line: flow cytometry, HEK 293F cells displaying the construct, IgG1 1 µg/mL, APC (binding) against PE (expression); on Vec cells Q2 1.86.

Assay [2] has as its target T2, Ig+Fr (human).
T2 construct: two-domain fragment;transmembrane segment; also called HA-Ig+Fr
The description is as above.

For assay [3], the target named is T3, Fr (human).
T3 construct: isolated domain;transmembrane segment; also called HA-Fr
The description is as above.

For assay [4], the target named is Fr+Ki (human). The description is as above.
Chain of Fr+Ki (human) (chain, as listed by the source): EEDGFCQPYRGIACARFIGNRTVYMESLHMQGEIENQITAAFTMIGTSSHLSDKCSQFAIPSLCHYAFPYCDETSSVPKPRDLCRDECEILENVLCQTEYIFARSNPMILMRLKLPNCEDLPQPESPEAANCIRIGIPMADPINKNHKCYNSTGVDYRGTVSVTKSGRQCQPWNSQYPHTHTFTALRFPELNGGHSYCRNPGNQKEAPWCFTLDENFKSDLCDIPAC
In assay [5] the target is T4, Ki (human).
T4 construct: isolated domain;transmembrane segment; also called HA-Ki
Described as above.

In assay [6] the target is T5, Ig.
T5 construct: transmembrane segment; also called HA-Ig
The description is as above.

Assay [7] addresses T6, human CD20 on HEK293 cells (Retrogenix array) (human, UniProt P11836 1-297).
T6 construct: whole, on cells
T6 sequence (looked up): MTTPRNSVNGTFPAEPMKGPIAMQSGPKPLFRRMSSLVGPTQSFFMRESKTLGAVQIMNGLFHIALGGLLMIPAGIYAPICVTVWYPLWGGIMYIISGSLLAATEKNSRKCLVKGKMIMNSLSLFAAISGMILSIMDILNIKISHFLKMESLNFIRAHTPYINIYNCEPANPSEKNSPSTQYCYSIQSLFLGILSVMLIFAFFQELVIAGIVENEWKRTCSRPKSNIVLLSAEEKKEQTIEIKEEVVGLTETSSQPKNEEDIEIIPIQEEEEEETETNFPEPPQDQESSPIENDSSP
The experiment in a line: Retrogenix cell microarray, identical slides of fixed HEK293 cells, AlexaFluor647 anti-human IgG Fc.

T1 sequence (Q01974 other isoform, or with tags, fused parts or gaps limits assumed, form in doubt): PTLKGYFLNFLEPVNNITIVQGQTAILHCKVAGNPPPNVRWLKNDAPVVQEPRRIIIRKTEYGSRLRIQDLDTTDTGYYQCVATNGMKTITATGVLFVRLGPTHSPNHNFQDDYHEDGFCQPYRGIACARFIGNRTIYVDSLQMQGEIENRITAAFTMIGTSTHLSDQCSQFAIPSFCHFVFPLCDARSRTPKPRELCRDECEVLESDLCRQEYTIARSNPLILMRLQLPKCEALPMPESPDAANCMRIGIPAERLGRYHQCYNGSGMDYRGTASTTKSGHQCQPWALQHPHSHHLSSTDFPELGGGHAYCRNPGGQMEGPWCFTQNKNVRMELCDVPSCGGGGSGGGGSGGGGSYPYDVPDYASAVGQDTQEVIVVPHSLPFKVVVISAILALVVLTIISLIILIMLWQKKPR

B1: IgG1 XBR2-416 (antibody, V domains shown)
VH: QEQLEESGGRLVTPGTPLTLTCTVSGFSLSSYWMSWVRQAPGKGLEWIGTITPGGNTDYATWAKARFTVSKTSTTVDLKITSPTTEDTATYFCARGIGGAADLWGPGTLVTISS
VL: AQVLTQTPSSTSAAVGGTVTIKCQASQSISSSDLSWYQQKPGQPPKLLIYATSYLASGVPSRFKGSGSGTEYTLTISGVQREDAATYYCLGGYPNTSYRSAFGGGTKVEIK
notes: also called chimeric rabbit/human IgG1 XBR2-416
As to B1, the “cells in quadrant Q2 (PE+ APC+)” value turned out to be 55.9% in assay [1]; 3.9% in assay [2]; 4.05% in assay [3]; 69.7% in assay [4]; 90.2% in assay [5]; 3.22% in assay [6].

B2: chimeric rabbit/human IgG1 XBR2-401 (antibody, V domains shown)
VH: QSVKESEGGLFKPTDTLTLTCTVSGFSLSSYGVTWVRQAPGSGLEWIGYINTAGNTYYASWAKSRSTITRNTNENTVTLKMTSLTAADTATYFCARDWTSLNIWGPGTLVTVSS
VL: DPMLTQTPSSTSTAVGDTVTIKCQASQSISSDLSWYQQKPGQRPKLLIYQASTLASGVPSRFKGSGYGTEYTLTISGVQREDAAIYYCLGGYADASYRTAFGGGTKLEIK
Turning to B2, in assay [7], the binding result was “no binding (tested: 20 µg/mL)”.
